Source: patent US20200048328A1 (Bristol-Myers Squibb, published 2020)
Values belong to the binder of their own block, whether it stands above or below them.

Columns and labels:
mouse serum albumin [1] = biological target: T1, mouse serum albumin (mouse, UniProt P07724 25-608); assay: SPR, albumin immobilized, HBSP pH 7.4
T1 construct: also called MSA; MuSA

rhesus serum albumin [2] = biological target: T2, rhesus serum albumin (rhesus, UniProt Q28522 17-600); assay: SPR, albumin immobilized, HBSP pH 7.4
T2 construct: also called RhSA; Rh-SA

human serum albumin [3] = biological target: T3, human serum albumin (human, UniProt P02768 25-609); assay: SPR, albumin immobilized, HBSP pH 7.4
T3 construct: immobilized on chips or coated on plates elsewhere; also called HSA; HuSA

human PCSK9 [4] = biological target: T4, human PCSK9 (human, UniProt Q8NBP7 31-692); assay: BLI (Octet), biotinylated PCSK9 on tips, tandem in complex with excess HSA
T4 construct: also called hPCSK9; huPCSK9

human PCSK9 [5] = biological target: T4, human PCSK9; assay: PCSK9:EGFA FRET 1, competition
mouse serum albumin [6] = biological target: T1, mouse serum albumin; assay: SPR, albumin immobilized, acetate pH 7.4
rhesus serum albumin [7] = biological target: T2, rhesus serum albumin; assay: SPR, albumin immobilized, acetate pH 7.4
human serum albumin [8] = biological target: T3, human serum albumin; assay: SPR, albumin immobilized, acetate pH 7.4
mouse serum albumin [9] = biological target: T1, mouse serum albumin; assay: SPR, albumin immobilized;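 also: biacore SPR with human, rhesus or mouse serum albumin amine-coupled to the chip (about 1200 RU), 3 min association, 6-10 min dissociation, reference-subtracted traces fitted with a 1:1 model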
rhesus serum albumin [10] = biological target: T2, rhesus serum albumin; assay: SPR, albumin immobilized;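 also: biacore SPR with human, rhesus or mouse serum albumin amine-coupled to the chip (about 1200 RU), 3 min association, 6-10 min dissociation, reference-subtracted traces fitted with a 1:1 model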
human serum albumin [11] = biological target: T3, human serum albumin; assay: SPR, albumin immobilized;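 also: biacore SPR with human, rhesus or mouse serum albumin amine-coupled to the chip (about 1200 RU), 3 min association, 6-10 min dissociation, reference-subtracted traces fitted with a 1:1 model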
human PCSK9 [12] = biological target: T4, human PCSK9; assay: PCSK9:EGFA FRET 2, competition
mouse serum albumin [13] = biological target: T1, mouse serum albumin; assay: direct binding ELISA, albumin coated
rhesus serum albumin [14] = biological target: T2, rhesus serum albumin; assay: direct binding ELISA, albumin coated
human serum albumin [15] = biological target: T3, human serum albumin; assay: direct binding ELISA, albumin coated
human PCSK9 [16] = biological target: T4, human PCSK9; assay: BLI (Octet), biotinylated PCSK9 on tips, no HSA
mouse serum albumin [17] = biological target: T1, mouse serum albumin; assay: SPR, albumin immobilized, acetate pH 5.5
rhesus serum albumin [18] = biological target: T2, rhesus serum albumin; assay: SPR, albumin immobilized, acetate pH 5.5
human serum albumin [19] = biological target: T3, human serum albumin; assay: SPR, albumin immobilized, acetate pH 5.5
human PCSK9 [20] = biological target: T4, human PCSK9; assay: PCSK9:LDLR FRET, competition

B1: PCSK9-PKE2 tandem 4472_E06 (designed binder)
PCSK9 domain: MGVSDVPRDLEVVAATPTSLLISWDAPAEGYGYYRITYGETGGNSPVQEFTVPVSKGTATISGLKPGVDYTITVYAVEFDFPGAGYYHRPISINYRTE
PKE2 domain: GVSDVPRDLEVVAATPTSLLISWDAPAVTVRYYRITYGREVQKYSDLGPLYIYQEFTVPGSKSTATISGLKPGVDYTITVYAVTGSGESPASSKPISINYRTEHHHHHH
modifications: The real molecule is ONE polypeptide: PCSK9 domain, undisclosed linker I (a code letter), PKE2 domain. It is given here as two chains because the linker letters are unknown.
notes: also called 4427_E06; not shown: The inter-domain linker
Kd (mouse serum albumin [1]): 21.8 nM | koff (mouse serum albumin [1]): 0.00033 s⁻¹ | kon (mouse serum albumin [1]): 15200 M⁻¹ s⁻¹ | Kd (rhesus serum albumin [2]): 64.9 nM | koff (rhesus serum albumin [2]): 0.000332 s⁻¹ | kon (rhesus serum albumin [2]): 5110 M⁻¹ s⁻¹ | Kd (human serum albumin [3]): 61.4 nM | koff (human serum albumin [3]): 0.000292 s⁻¹ | kon (human serum albumin [3]): 4760 M⁻¹ s⁻¹ | Kd (human PCSK9 [4]): 1 nM | koff (human PCSK9 [4]): 0.000209 s⁻¹ | kon (human PCSK9 [4]): 207000 M⁻¹ s⁻¹ | IC50 (human PCSK9 [5]): 7.67 nM | Kd (mouse serum albumin [6]): 26.1 nM | koff (mouse serum albumin [6]): 0.000362 s⁻¹ | kon (mouse serum albumin [6]): 14100 M⁻¹ s⁻¹ | Kd (rhesus serum albumin [7]): 65.4 nM | koff (rhesus serum albumin [7]): 0.000408 s⁻¹ | kon (rhesus serum albumin [7]): 6240 M⁻¹ s⁻¹ | Kd (human serum albumin [8]): 64.9 nM | koff (human serum albumin [8]): 0.000383 s⁻¹ | kon (human serum albumin [8]): 5910 M⁻¹ s⁻¹ | Kd (mouse serum albumin [9]): 20 nM | koff (mouse serum albumin [9]): 0.0003 s⁻¹ | kon (mouse serum albumin [9]): 15000 M⁻¹ s⁻¹ | Kd (rhesus serum albumin [10]): 71.9 nM | koff (rhesus serum albumin [10]): 0.000415 s⁻¹ | kon (rhesus serum albumin [10]): 5770 M⁻¹ s⁻¹ | Kd (human serum albumin [11]): 68.4 nM | koff (human serum albumin [11]): 0.000362 s⁻¹ | kon (human serum albumin [11]): 5300 M⁻¹ s⁻¹ | IC50 (human PCSK9 [12]): 5.68 nM | EC50 (mouse serum albumin [13]): 4.2 nM | EC50 (rhesus serum albumin [14]): 40.1 nM | EC50 (human serum albumin [15]): 67.3 nM | Kd (human PCSK9 [16]): 0.724 nM | koff (human PCSK9 [16]): 0.0002 s⁻¹ | kon (human PCSK9 [16]): 281000 M⁻¹ s⁻¹ | Kd (mouse serum albumin [17]): 114 nM | koff (mouse serum albumin [17]): 0.00152 s⁻¹ | kon (mouse serum albumin [17]): 13400 M⁻¹ s⁻¹ | Kd (rhesus serum albumin [18]): 91.1 nM | koff (rhesus serum albumin [18]): 0.000788 s⁻¹ | kon (rhesus serum albumin [18]): 8640 M⁻¹ s⁻¹ | Kd (human serum albumin [19]): 35.2 nM | koff (human serum albumin [19]): 0.000478 s⁻¹ | kon (human serum albumin [19]): 13600 M⁻¹ s⁻¹ | IC50 (human PCSK9 [20]): 1.6 nM

B2: PCSK9-PKE2 tandem 4472_B09 (designed binder, not shown: small tags and cut ends)
PCSK9 10Fn3: MGVSDVPRDLEVVAATPTSLLISWDAPAEGYGYYRITYGETGGNSPVQEFTVPVSKGTATISGLKPGVDYTITVYAVEFDFPGAGYYHRPISINYRTE
PKE2 10Fn3: GVSDVPRDLEVVAATPTSLLISWDAPAVTVRYYRITYGREVQKYSDLGPLYIYQEFTVPGSKSTATISGLKPGVDYTITVYAVTGSGESPASSKPISINYRTEHHHHHH
modifications: The two parts are one polypeptide in the real molecule, joined by the undisclosed linker K; they are given here as separate chains.
IC50 (human PCSK9 [5]): 9.36 nM | IC50 (human PCSK9 [12]): 6.95 nM | EC50 (mouse serum albumin [13]): 9.8 nM | EC50 (rhesus serum albumin [14]): 45.1 nM | EC50 (human serum albumin [15]): 69.2 nM | IC50 (human PCSK9 [20]): 2.4 nM

B3: PCSK9-PKE2 tandem 4472_B10 (designed binder)
PCSK9 domain: MGVSDVPRDLEVVAATPTSLLISWDAPAEGYGYYRITYGETGGNSPVQEFTVPVSKGTATISGLKPGVDYTITVYAVEFDFPGAGYYHRPISINYRTE
PKE2 domain: GVSDVPRDLEVVAATPTSLLISWDAPAVTVRYYRITYGREVQKYSDLGPLYIYQEFTVPGSKSTATISGLKPGVDYTITVYAVTGSGESPASSKPISINYRTEHHHHHH
modifications: The real molecule is ONE polypeptide: PCSK9 domain, undisclosed linker J, PKE2 domain. It is given here as two chains because the linker letters are unknown.
notes: not shown: The inter-domain linker
IC50 (human PCSK9 [5]): 9.69 nM | IC50 (human PCSK9 [12]): 6.97 nM | EC50 (mouse serum albumin [13]): 10.9 nM | EC50 (rhesus serum albumin [14]): 38.9 nM | EC50 (human serum albumin [15]): 67.7 nM | IC50 (human PCSK9 [20]): 2.2 nM

B4: PCSK9-PKE2 tandem 4472_A06 (designed binder, not shown: small tags and cut ends)
PCSK9 10Fn3: MGVSDVPRDLEVVAATPTSLLISWDAPAEGYGYYRITYGETGGNSPVQEFTVPVSKGTATISGLKPGVDYTITVYAVEFDFPGAGYYHRPISINYRTE
PKE2 10Fn3: GVSDVPRDLEVVAATPTSLLISWDAPAVTVRYYRITYGREVQKYSDLGPLYIYQEFTVPGSKSTATISGLKPGVDYTITVYAVTGSGESPASSKPISINYRTEHHHHHH
modifications: The two parts are one polypeptide in the real molecule, joined by the undisclosed linker M; they are given here as separate chains.
IC50 (human PCSK9 [5]): 9.06 nM | IC50 (human PCSK9 [12]): 2.72 nM | EC50 (mouse serum albumin [13]): 8.6 nM | EC50 (rhesus serum albumin [14]): 44.4 nM | EC50 (human serum albumin [15]): 77.8 nM | IC50 (human PCSK9 [20]): 1.6 nM

Other lines, results leading:

IC50 (human PCSK9 [5]): 6.66 nM | IC50 (human PCSK9 [12]): 5.55 nM | EC50 (mouse serum albumin [13]): 9.3 nM | EC50 (rhesus serum albumin [14]): 59.5 nM | EC50 (human serum albumin [15]): 85.1 nM | IC50 (human PCSK9 [20]): 1.9 nM
B5: PCSK9-PKE2 tandem 4472_B05 (designed binder, not shown: small tags and cut ends)
PCSK9 10Fn3: MGVSDVPRDLEVVAATPTSLLISWDAPAEGYGYYRITYGETGGNSPVQEFTVPVSKGTATISGLKPGVDYTITVYAVEFDFPGAGYYHRPISINYRTE
PKE2 10Fn3: GVSDVPRDLEVVAATPTSLLISWDAPAVTVRYYRITYGREVQKYSDLGPLYIYQEFTVPGSKSTATISGLKPGVDYTITVYAVTGSGESPASSKPISINYRTEHHHHHH
modifications: The two parts are one polypeptide in the real molecule, joined by the undisclosed linker O; they are given here as separate chains.

IC50 (human PCSK9 [5]): 7.45 nM | IC50 (human PCSK9 [12]): 4.83 nM | EC50 (mouse serum albumin [13]): 14.8 nM | EC50 (rhesus serum albumin [14]): 98.2 nM | EC50 (human serum albumin [15]): 124 nM | IC50 (human PCSK9 [20]): 1.4 nM
B6: PCSK9-PKE2 tandem 4472_B03 (designed binder)
PCSK9 domain: MGVSDVPRDLEVVAATPTSLLISWDAPAEGYGYYRITYGETGGNSPVQEFTVPVSKGTATISGLKPGVDYTITVYAVEFDFPGAGYYHRPISINYRTE
PKE2 domain: GVSDVPRDLEVVAATPTSLLISWDAPAVTVRYYRITYGREVQKYSDLGPLYIYQEFTVPGSKSTATISGLKPGVDYTITVYAVTGSGESPASSKPISINYRTEHHHHHH
notes: not shown: The inter-domain linker; In the real molecule the two parts below are one polypeptide joined by this linker
